In publication PMC10104517:

Legend:
pI73R [1] = target: T1, pI73R (African swine fever virus (ASFV-GZ, …, UniProt A0A2X0RU36 1-72)); experiment: BLI
pI73R [2] = target: T1, pI73R; experiment: EMSA

Row | Binder | Kd (pI73R [1]) [nM] | binding result (pI73R [2])
1 | TTGACGAGGAAGTGTCTGTT (ssDNA) [ssDNA] | 113 | 
2 | GCUUUGCAGCCGCGGCUCGGUUUAG (ssRNA) [High-GC ssRNA] |  | binds
3 | GCUUUGAUUUCGUGCAUCUAUGGAG (ssRNA) [ssRNA] | 37.5 | 
4 | dsDNA (dsDNA) DNA 1: TTGACGAGGAAGTGTCTGTT DNA 2: AACAGACACTTCCTCGTCAA | 100 | 
5 | dsRNA (dsRNA) RNA 1: GCUUUGAUUUCGUGCAUCUAUGGAG RNA 2: CUCCAUAGAUGCACGAAAUCAAAGC | 70 | 
